Consider one molecule from PMC8041823, “Structural comparison of Acinetobacter baumannii β-ketoacyl-acyl carrier protein reductases in fatty acid and aryl polyene biosynthesis” (Scientific Reports, 2021).

As usually defined, the Kd is the equilibrium constant for the complex coming apart. High values mean lower affinity, low ones higher affinity. By stoichiometry N is commonly meant a count of units in the complex or per binding partner.

The target of this test is T1, Acinetobacter baumannii ApeQ (β-ketoacyl-ACP reductase of the aryl polyene biosynthesis gene cluster) (Acinetobacter baumannii (clinical CRAB …)).
T1 construct: ApeQ of A. baumannii, amplified from genomic DNA of the clinical carbapenem-resistant strain C1 with primers designed on the A. baumannii ACICU genome; NCBI ACC55845.1; Cloned NdeI/XhoI into pET28a; His-tag removed with thrombin; Residues of the thrombin site may be left at the N-terminus; also called AbApeQ; source: E. coli BL21 (DE3), purified (Chelating Sepharose, thrombin, Q-Sepharose anion …)
As to the kind of experiment: ITC; 2 mM holo ACP1 titrated into 0.1 mM reductase; 20 mM Tris pH 8, 100 mM NaCl, 2 mM NADPH; 25 °C; MicroCal 200. The following applies: both partners purified.

B1: holo ACP1 (acyl carrier protein 1 of the A. baumannii aryl polyene biosynthesis gene cluster) (natural protein)
chain: MSNLADELKQMIIDVLALEDITIADIDTEAPLFGEGLGLDSIDALELGLALKKRYNIHLNAESDETKQHFKSIQSLVALVEAQQKS
modifications: holo form (phosphopantetheine arm; made by co-expression with holo-ACP synthase AbAcpS); residue not stated
Take B1: the Kd was ~80 µM, the dH amounted to 3.05 kcal/mol and the “stoichiometry N” value was determined as 1.11.
